Experimental data published in the nanobody polyreactivity screen of Harvey et al. (2022).

experiment: yeast display, Sf9 membrane polyspecificity reagent, FACS + sequencing; frameworks hold sequencing errors
In short: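 Nanobodies came from a synthetic yeast display library in Saccharomyces cerevisiae BJ5465, induced with galactose for 36–48 hours and stained for 1 hour at 4 °C with 10% biotinylated, detergent-solubilized Sf9 membrane reagent. Cells were enriched on streptavidin microbeads and then FACS-sorted, with low and high (top ~1%) gates set on anti-HA fluorescence for expression and streptavidin fluorescence for reagent binding. Each polyreactivity label reflects the gate a clone came from. Genes were amplified by colony PCR, sequenced by MiSeq 2 × 250 and filtered by CDR length.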

Question: Which “polyreactivity (PSR sort gate)” value does the source give for “QVQLVESGGGLVQAGGSLRLSCAASGITINFYAMGWYRQAPGKERELVAAITQSGGSTYYADSVKGRFTISRDNAKNTVYLQMNRLKPEDTAVYYCAAARTGHMYYWGQGTQVTVSS” here?
Answer: high polyreactivity

Question: With “QVQLVESGGGLVQAGGSLRLSCAASGITINYYAMGWYRQAPGKERELVATIRSGGGTYYADSVKGRFTISRDNAKNTVYLQMNSLKTEDTAVYYCASYTYPYYRYDYWGQGTQVTVSS” as the sequence, how does the “polyreactivity (PSR sort gate)” value read?
Answer: high polyreactivity

Question: With “QVQLVESGGGLVQAGGSLRLSCAASGITIRLYAKGWYRQAPGKERELVAGISSGGSTYYADSVKGRFTISRDNAKNTFYLQMNSLKPEDTAVYYCAAVSYGRRRPQHFEYWGQGTQVTVSS” as the sequence, how does the “polyreactivity (PSR sort gate)” value read?
Answer: high polyreactivity

Question: Which “polyreactivity (PSR sort gate)” value does the source give for “QVQLVESGGGLVQAGGSLRLSCAASGITIRRYAMGWYRQAPGKERELVAAISTSGGGTYYADSVKGRFTISRDNAKNTVYLQMNSLKPEDTAVYYCAARYLGYLLSGYPPYDYWGQGSQVTVSS” here?
Answer: high polyreactivity

Question: Which “polyreactivity (PSR sort gate)” value does the source give for “QVQLVESGGGLVQAGGSLRLSCAASGITIYDNDMGWYRQAPWKERELVAGITRTTVGTYYADSVKGRFTISRDNAKNTVYLQMNSLKPEDTAVYYCAATSLAGYYQFDYWGQGTQVTVSS” here?
Answer: low polyreactivity

Question: With “QVQLVESGGGLVQAGGSLRLSCAASGITLAGYVMGWYRQAPGKERELVADISSSGDSTYYADSVKGRFTISRDNAKNTVYLQMNSLKPEDTAVYYCADEEIIPLIYKGYPFDYWGQGTQVTVSS” as the sequence, how does the “polyreactivity (PSR sort gate)” value read?
Answer: low polyreactivity

Question: For “QVQLVESGGGLVQAGGSLRLSCAASGITLATNAMGLYRQAPGKERELVAAINSGGITKYADSVKGRFTISRDNEKNTVYLQMNSLKPEDTAVYYCAADLEPRTNAPGLPTPDGYYWGQGTQVTVSS”, which “polyreactivity (PSR sort gate)” value is on record?
Answer: low polyreactivity

Question: Which “polyreactivity (PSR sort gate)” value does the source give for “QVQLVESGGGLVQAGGSLRLSCAASGITLDDYAMGWDRQARGKERELVAAISWSGGSTYYADSVKGRFTISRDNAKNTDYLQMNSLKPADTAVYYCAADPPFRYDYWGQGTQVTVSS” here?
Answer: low polyreactivity

Question: Which “polyreactivity (PSR sort gate)” value does the source give for “QVQLVESGGGLVQAGGSLRLSCAASGITLDVNAMGWYRQAPGKERELVADITWSDDTTYYADSVKGRFTISRDNAKNTVYLQMNSLKPEDTAVYYCAADVSVSFHPRGYDYWGQGTQVTVSS” here?
Answer: low polyreactivity

Question: For “QVQLVESGGGLVQAGGSLRLSCAASGITLHYYAMGWYRQAPGKEREFVAAISWTGGSTYYADSVKGRFTISRDTAKNTVYLQMNSLKPEDTAVYYCAAEGGAFRTYYYWGQGTQVTVSS”, which “polyreactivity (PSR sort gate)” value is on record?
Answer: high polyreactivity

Question: With “QVQLVESGGGLVQAGGSLRLSCAASGITLIRYAMGWYRQAPGKERELVAAINSSGGNTYYADSVKGRFTISRDNAKNTVYLQMNSLKPEDTAVYYCAAKYILDIIGSLDYWGQGTQVTVSS” as the sequence, how does the “polyreactivity (PSR sort gate)” value read?
Answer: low polyreactivity

Question: For “QVQLVESGGGLVQAGGSLRLSCAASGITLKPNAMGWYRQAPGKERELVAAIDSGGSTNYADSVKGRFTISRDNAKNTVYLQMNSLKPEDTAVYYCAAPYQDRDLQVSYSTYEGGYWGQGTQVTVSS”, which “polyreactivity (PSR sort gate)” value is on record?
Answer: low polyreactivity

Question: Which “polyreactivity (PSR sort gate)” value does the source give for “QVQLVESGGGLVQAGGSLRLSCAASGITLLGNAMGWYRQAPGTERELVAAISRRGGSTYYADSVKGRFTISRDNAKNTVYLQMNSLKPEDTAVYYCAADRYTVVYYRIFDYWGQGTQVTVSS” here?
Answer: high polyreactivity

Question: With “QVQLVESGGGLVQAGGSLRLSCAASGITLLYNAMGWSRQAPGKERELVAGITGRGGSTYYADSVKGRFTISRDNAKNTVYLQMNSLKPEDTAVYYCAATTDYRYVGRIVIRDEHWGQGTQVTVSS” as the sequence, how does the “polyreactivity (PSR sort gate)” value read?
Answer: low polyreactivity

Question: Which “polyreactivity (PSR sort gate)” value does the source give for “QVQLVESGGGLVQAGGSLRLSCAASGITLLYNAMGWYRQAPGKERELVAGITGRGGSTYYADSVKGRFTISRDNAKNTVYLQMNSLKPEDNAVYYCAATTDYRYVGRIVIRDDHWGHGTQVTVSS” here?
Answer: low polyreactivity

Question: With “QVQLVESGGGLVQAGGSLRLSCAASGITLPVYGKGWYRQAPGKERELVAVIDIVGITNYADSVKGRFTISRDNAKNTVYLQMNSLKPEDTAVYYCAKRYVYIADGGEYYYWGQGTQVTVSS” as the sequence, how does the “polyreactivity (PSR sort gate)” value read?
Answer: low polyreactivity

Question: With “QVQLVESGGGLVQAGGSLRLSCAASGITLQNNAMGWYRQAPGKERELVAAITGSGGSTYYADSVKGRFTISRDNAKNTVYLQMNSLKPEDTAVYYCATDGIFHLGVYTPYDYWGQGTQVTVSS” as the sequence, how does the “polyreactivity (PSR sort gate)” value read?
Answer: low polyreactivity

Question: For “QVQLVESGGGLVQAGGSLRLSCAASGITLQYYAMGWYRQAPGKERQLVAGITSGGGTYYADSVKGRFTISRDNAKNTVYLQMNSLKPEDTAVYYCAARPWRSRYYGGLGRRFDYWGQGTQETVSS”, which “polyreactivity (PSR sort gate)” value is on record?
Answer: high polyreactivity

Question: With “QVQLVESGGGLVQAGGSLRLSCAASGITLSSNAMGWYRQAPGKERELVAAITWRTDRTYYADSVKGRFTISRDNAKNTVYLQMNSLKPEDTAVDYCAARTTVSSARYDYWGQGTQVTVSS” as the sequence, how does the “polyreactivity (PSR sort gate)” value read?
Answer: high polyreactivity

Question: With “QVQLVESGGGLVQAGGSLRLSCAASGITLTPYAMGWYRQAPGKERELVAAISWSGGSTYYADSVKGRFTISRDNAKNTVYLQMNSLKPEDTAVYYCAAGPGQYTVYAGTIGEYDYWGQGTQVTVSS” as the sequence, how does the “polyreactivity (PSR sort gate)” value read?
Answer: high polyreactivity

Question: For “QVQLVESGGGLVQAGGSLRLSCAASGITLVRYAMGWNRKAPGKEREFVASITSGASTNYADSVKGRFTISRYNAKNTVYLQMNSLKPDDTAVYYCAAGPPSGGWWGGWYEYWGQGTQVTVSS”, which “polyreactivity (PSR sort gate)” value is on record?
Answer: high polyreactivity

Question: With “QVQLVESGGGLVQAGGSLRLSCAASGITLWQYAMGWYRQAPGKERELVAGITDTGDSTYYADSVKGRFTISRDNAKNTVYLQMNSLKPEDTAVYYCAVPRSALLRAPYELYSWGQGTQVTVSS” as the sequence, how does the “polyreactivity (PSR sort gate)” value read?
Answer: low polyreactivity

Question: Which “polyreactivity (PSR sort gate)” value does the source give for “QVQLVESGGGLVQAGGSLRLSCAASGITLYGYVMGWYRQAPGKERELVAAISASGGRTHYADSVKGRFTISRDNAKNTVYLQMNSLKPEDTAVYYCARAGSRSPGGYDYWGQGTQVTVSS” here?
Answer: high polyreactivity

Question: Which “polyreactivity (PSR sort gate)” value does the source give for “QVQLVESGGGLVQAGGSLRLSCAASGITLYNYAMGWYRQAPGKERELVAAISLSGGRTYYADSVKGRFTISRDNAKNTVYLQMNSLKPEDTAVYYCAADWLNSDPYNYWGQGTQVTVSS” here?
Answer: low polyreactivity

Question: For “QVQLVESGGGLVQAGGSLRLSCAASGITLYNYAMGWYRQAPGKERELVAAISLSGGRTYYADSVKGRFTISRDNAKNTVYLQMNSLKPEDTAVYYCAAETDFVWSAPQLAYKVYYWGQGTQVTVSS”, which “polyreactivity (PSR sort gate)” value is on record?
Answer: low polyreactivity

Question: Which “polyreactivity (PSR sort gate)” value does the source give for “QVQLVESGGGLVQAGGSLRLSCAASGITLYRYVMGWYRQAPGKERELVAAISGRGTSTYYADSVKGRFPISRDNAKNTVYLQMNSLKPEDTAVYYCNAEYTKTGALVIPYTYYYAEDYWGQGTQVTVSS” here?
Answer: low polyreactivity

Question: With “QVQLVESGGGLVQAGGSLRLSCAASGITNTHYAMGWYRQAPGKERELVAAITSSGRTYYADSVKGRFTISRDNAKNTVYLQMNSLKPEDTAVYYCAAEHSWYYGLLGYWGQGTQVTVSS” as the sequence, how does the “polyreactivity (PSR sort gate)” value read?
Answer: high polyreactivity

Question: Which “polyreactivity (PSR sort gate)” value does the source give for “QVQLVESGGGLVQAGGSLRLSCAASGITSARYAMGWYRQAPGKERELVAAITLSGVRTYYADSVKGRFTISRDQAKNTVYLQMNSLKPEDTAVYYCNTVYYSKWGQGTQVTVSS” here?
Answer: low polyreactivity

Question: With “QVQLVESGGGLVQAGGSLRLSCAASGITSDQNAMGWYRQAPGKERELVAAITRGGTTYYADSVKGRFTISRDNAKNTVYLQMNSLKPEDTAVYYCNARYYFRKQVRPFHIRYDYWGQGTQVTVSS” as the sequence, how does the “polyreactivity (PSR sort gate)” value read?
Answer: low polyreactivity

Question: For “QVQLVESGGGLVQAGGSLRLSCAASGITSEYNTMGWYRQAPGKERELVAGISYRGGSTYYADSVKGRFTISRDNAKNTVYLQMNSLKPEDTAVYYCAKSFKRWRYGNPDYYWGQGTQVTVSS”, which “polyreactivity (PSR sort gate)” value is on record?
Answer: high polyreactivity

Question: With “QVQLVESGGGLVQAGGSLRLSCAASGITSGTYAMGWYRQAPGKERELVAGISRSVTRTYYADSVKGRFTISRDNAKNTVYLQMNSLKPEDTAVYYCNTYVVRRPGYGYWGQGTQVTVSS” as the sequence, how does the “polyreactivity (PSR sort gate)” value read?
Answer: high polyreactivity

Question: With “QVQLVESGGGLVQAGGSLRLSCAASGITSKQYAMVWYRQAPGKERELVAAISGSGTRTYYADSVKGRFTISRDNAKNTVNLQMNSLKPEDTAVYYCAAYGYSRCHDDWGQVTQVTVSS” as the sequence, how does the “polyreactivity (PSR sort gate)” value read?
Answer: high polyreactivity

Question: Which “polyreactivity (PSR sort gate)” value does the source give for “QVQLVESGGGLVQAGGSLRLSCAASGITSQTYAMGWYRQAPGKERELVAGISASGGRTFYADSVKGRFTFSRDHAKNTVYLQMNSLKPEDTAVYYCNKLSSDSYNYWGQGTQVTVSS” here?
Answer: high polyreactivity

Question: For “QVQLVESGGGLVQAGGSLRLSCAASGITSSYAMGWYRQAPGKERALVAAISRGGSTYYADSVKGRFTISRDNAKNTVSLQMNSLKPEDTAVYYCNKRRYPYGWGQGTQVTVSS”, which “polyreactivity (PSR sort gate)” value is on record?
Answer: high polyreactivity

Question: For “QVQLVESGGGLVQAGGSLRLSCAASGITSWYYAMGWYRQAPGKERELVAAITSDGRTNYADSVMGRFTISRDNAKNTVYLQMNSLKPEDTAVYYCAVARYPYRYDYWGQGTQVTVSS”, which “polyreactivity (PSR sort gate)” value is on record?
Answer: high polyreactivity

Question: For “QVQLVESGGGLVQAGGSLRLSCAASGITSWYYAMGWYRQAPGKERELVAAITSDGSTYYADSVKGRFTISRDNAKNTVYLQMNSLKPEDTAVYYCAAERDYWIPDSYLVGMDYWGQGTQVTVSS”, which “polyreactivity (PSR sort gate)” value is on record?
Answer: low polyreactivity

Question: Which “polyreactivity (PSR sort gate)” value does the source give for “QVQLVESGGGLVQAGGSLRLSCAASGITVDSNAMGWYRQAPGKDRELVAAISSTGSTDYADSVKGRFTISRDNAKNTVYLQMNSLKPEDTAVYYCAADSRYYYYGYKISGDYDSWGQGTQVTVSS” here?
Answer: low polyreactivity

Question: For “QVQLVESGGGLVQAGGSLRLSCAASGITYGRYTMGWYRQAPGKERELVAAITNGDITDYADSVKGRFTISRDNAKNTVYLQMNSLKPEDTAVYYCAALLLYQNDHWGQGTQVTVSS”, which “polyreactivity (PSR sort gate)” value is on record?
Answer: high polyreactivity

Question: With “QVQLVESGGGLVQAGGSLRLSCAASGITYGTYAMGWYRQAPGKERELVARITGSGGRTYYADSVKGRFTISRDNAKNTVYLQMISLKPEDTAVYYCAAETWRRYLFGYWGQGTQVTVSS” as the sequence, how does the “polyreactivity (PSR sort gate)” value read?
Answer: high polyreactivity

Question: For “QVQLVESGGGLVQAGGSLRLSCAASGITYGYYAMGWYRQAPGKERELVATITDGGGTKYADSVKGRFTISRDNAKNTVYLQMNSLKPEDTAVYYCAAGLRHVYATEYDYWGQGTQVTVSS”, which “polyreactivity (PSR sort gate)” value is on record?
Answer: low polyreactivity
